Test results published in US7648964B2, “Use of lacritin in promoting ocular cell survival” (University of Virginia Patent Foundation, priority 2004, dated 2010).

How the values were obtained:
[1] = test system: PKCα; assay: Phospho-PKCα blot of HSG cell lysates; type: cell-based, human; details: for concentration of optimal dephosphorylation: increasing molar levels
Protocol: For phosphotyrosine blotting and mitogenesis assays, cells in serum-containing media were seeded overnight in 24-well plates at a density of 0.5×10^5 cells/mm^2 corresponding to 20-30% confluency after cell attachment, incubated in serum-free media without supplements for 24 h (phosphotyrosine) or washed with serum-free media without supplements three times (mitogenesis) and incubated with lacritin (1-1000 nM), or positive controls EGF (1.6 nM) and 10% fetal bovine serum, or negative controls bovine serum albumin or no additive in serum-free media without supplements for the indicated times (phosphotyrosine) or 30 h (mitogenesis). For phosphotyrosine assays, cells were extracted in 1% NP40 containing sodium vanadate (2 mg/ml), DTT (5 mg/ml), protease inhibitors, 50 mM HEPES, 100 mM NaCl, and 2 mM EDTA; then separated by 10% SDS PAGE, transferred and blotted. The following antibodies (Cell Signaling Technology, Beverly Mass.) were tested: antiphosphotyrosine antibody (P-Tyr-100), anti-phospho-PKC αβII, anti-PKCα, anti-phospho-PKCδ, anti-phospho-PKC (pan), anti-p44/42 MAPK, anti-phospho-Raf, anti-phospho-SAPK/JNK, anti-phospho-p38 Map kinase, anti-phospho-Raf, anti-phospho-Akt, anti-phospho-CaMKII, anti-phospho-MARCKS, or anti-tubulin (loading control). After washing, bound antibodies were detected with peroxidase-labeled secondary antibody and ECL. With the exception of at least nine proteins in the P-Tyr-100 blot (FIG. 1), none of the effectors tested above appeared to be phospho-activated during lacritin signaling (not shown). For mitogenesis (Hussaini et al., '00), [^3H]-thymidine (2 mCi/ml) was added for the next 6 h. Incorporation was stopped with ice-cold phosphate buffered saline and followed by addition of cold and then room temperature trichloracetic acid (10%) for 10 min each, washing of cells with phosphate buffered saline, solubilization with 1 N sodium hydroxide, neutralization with 1 N hydrochloric acid, addition of scintillation fluid and then quantitation in a scintillation counter. To deplete PKCα in HSG cells, a pool of four PKCα-specific siRNAs (100 nM) were transfected via LipofectAMINE 2000 in Opti-MEMI Reduced Serum Medium (Invitrogen, Grand Island N.Y.) without serum and antibiotics according to manufacturer's instructions. Each of the four siRNAs was also individually transfected. In negative controls, cells were transfected with a pool of four lamin-specific siRNAs (Upstate LLC, Charlottesville Va.; Dharmacon Inc, Lafayette Colo.). Seventy-two hours post-transfection, mitogenesis was assessed by co-addition of 10 […] lacritin and [^3H]-thymidine (2 mCi/ml) (Amersham, Piscataway N.J.) for 24 hrs. PKCα depletion was confirmed by Western blotting.
We imaged PKCα in cells 15 min after treatment (FIG. 8). Nonmitogenic construct/fragment C-25 (10 nM) had no effect, leaving PKCa diffusely distributed throughout the cytoplasm. […] The phosphorylation state of PKCα influences its translocation site. Hyperphosphorylated PKCα becomes associated with the plasma membrane whereas hypophosphorylated or dephosphorylated PKCα is known to translocate to the perinuclear Golgi region. To determine if the latter is true and if so over what time course, we treated cells with lacritin, N-24 and C-25, and then blotted cell lysates for phospho-PKC ? (FIG. 8B). 10 nM lacritin promotes PKC ? dephosphorylation within 1 min of addition. This form is sustained for at least 15 min, but by 30 min has returned to baseline phosphorylation. Dephosphorylation triggered by increasing molar levels of lacritin or N-24 mirrored the proliferation response with optimal dephosphorylation at 10 nM. Non-mitogenic C-25 had no effect, whereas positive control 4β-phorbol 12-myristate 13-acetate-promoted hyperphosphorylation.

[2] = test system: PKCα; assay: PKCα translocation in HSG cells (immunofluorescence, fractionation); type: cell-based, human; details: for PKCα translocation: 15 min after treatment
Source text: In order to dissect the molecular pathways leading to the cell survival by lacritin, protein kinases and transcriptional factors were studied by Western blotting and immunofluorescence microscopy.
Images were acquired at 2-3 s intervals using LaserSharp2000 software (Bio-Rad) and store on disc for later analysis.

[3] = test system: caspase-9; assay: Caspase-9 activity in human corneal epithelial cells treated with TNF-α; type: cell-based; details: lacritin polypeptides 10 nM
Protocol: FIG. 13 graphically illustrates the ability of lacritin polypeptides (10 nM) to block TNFα induced caspase-9 activity in human corneal epithelial cells. The ordinate represents relative fluorescence units. White bars indicate 6 hours and diagonally-hatched bars indicate 9 hours.
Caspase-9 activity was measured in cells treated with various combinations of TNF-α, fragments of lacritin, and the PKC inhibitor Go6976. […] The PKC-α inhibitor Go6976 and C-25 fail to block this increase of the downstream initiator caspase-9.

[4] = test system: NFATC1; assay: NFATC1 translocation in HSG cells (immunofluorescence); type: cell-based, human; details: for NFATC1 translocation: HSG and corneal epithelial cells
Source text: In order to dissect the molecular pathways leading to the cell survival by lacritin, protein kinases and transcriptional factors were studied by Western blotting and immunofluorescence microscopy. […] On the other hand, there were increased activities of transcriptional factors such as nuclear factor of activated T-cells (NFAT) and NF-kappaB. In FIG. 4, translocation of PKC alpha and NFAT was detected by immunofluorescence coupled with confocal microscopic imaging. In resting HSG cells (left three images), PKC alpha distributes mainly in cytosol and membrane. Similarly, NFATc1 was also found to localize largely in cytosol. Cellular co-location of PKC alpha and NFATc1 is apparent upon merging the two immunofluorescent images, as the merged cy3 and FITC labels produce distinctive yellow color.
Images were acquired at 2-3 s intervals using LaserSharp2000 software (Bio-Rad) and store on disc for later analysis. For translocation assays, HSG cells […] phorbol 12-myristate 13-acetate, […], then washed with phosphate-buffered saline, formaldehyde-fixed, blocked with phosphate-buffered saline containing 1% bovine serum albumin and 10% goat serum, incubated with anti-PKCα (C-20) or anti-NFATC1 (mab 7A6) (both from Santa Cruz Biotechnology Inc.; Santa Cruz, Calif.) followed by secondary Cy3-, FITC- or Alexa488-labeled antibodies and confocal microscopic visualization (Bio-Rad Radiance2100).

[5] = test system: human corneal epithelial (HCE) cell line; assay: TNF-α-induced cell death in HCE cells (MTT cell viability); type: cell-based; details: for protection from TNF-induced cell death (viability): 18 or 30 hours, FIG. 10
Protocol: Lacritin-induced proliferation and calcium signaling was studied in the human corneal epithelial (HCE) cell line. HCE cells were grown at 37° C. in DMEM F/12 supplemented with 10% FBS and 50 μg/ml gentamicin. Each experiment was done in a dose- and time-dependent manner using TNF-α (5-20 ng/ml) and lacritin (1-10 nM). Cell viability was measured spectrophotometrically at an absorbance of 570 nm using the MTT assay. Caspase-8 activity was detected fluorometrically by measuring cleavage of the fluorogenic substrate IETD-pNA at an excitation wavelength of 405 nm. Lacritin-induced cell proliferation was studied by H3-thymidine incorporation and via fluorescence-based detection of PKC, PLC and cAMP. Calcium signaling was detected by confocal microscopy of Fluo-4 loaded cells.

[6] = lacritin treatment for 1 hour, immunofluorescence

Cn1c2ccccc2c2c3c(c4c5ccccc5n(CCC#N)c4c21)CNC3=O [Go 6976]
effect on lacritin-dependent PKCα dephosphorylation ([1]; pertussis toxin 100 ng/ml, Go 6976, U73122, U73343 1 μM): inhibited
effect on lacritin-dependent PKCα translocation ([2]; pertussis toxin 100 ng/ml, Go 6976, U73122, U73343, cyclosporine 1 μM, nifedipine 10 μM): inhibited
effect on TNF-α-induced caspase-9 activity [3]: fail to block
effect on lacritin-dependent NFATC1 translocation ([4]; cyclosporine 1 μM, nifedipine 10 μM): inhibited
protection from TNF-induced cell death (viability) [5]: no effect on viability loss

B1: lacritin: recombinant human lacritin from E. coli; mature 119 residue fragment (SEQ ID NO:10) of native lacritin SEQ ID NO:4 (protein, listed as Homo sapiens)
chain: EDASSDSTGADPAQEAGTSKPNEEISGPAEPASPPETTTTAQETSAAAVQGTAKVTSSRQELNPLKSIVEKSILLTEQALAKAGKGMHGGVPGGKQFIENGSEFAQKLLKKFSLLKPWA
time dephosphorylated form is sustained ([1]; 10 nM lacritin): at least 15 min
time of return to baseline phosphorylation ([1]; 10 nM lacritin): ≤ 30 min
time to PKCα dephosphorylation ([1]; 10 nM lacritin): ≤ 1 min
concentration of optimal dephosphorylation [1]: 10 nM
PKCα translocation [2]: shifted PKCα primarily to the perinuclear Golgi region
PKC alpha at the cell membrane ([2]; about 5 minutes lacritin treatment, subcellular fractionation, Western blotting): very little PKC alpha was detected at the cell membrane
PKC alpha localization [2, 6]: localize outside of the nuclear envelope
effect on TNF-α-induced caspase-9 activity [3]: blocked
NFATC1 translocation [4]: translocates into the nucleus
NFAT localization [4, 6]: translocates into nuclear compartment
protection from TNF-induced cell death (viability) [5]: protect
effect on TNF-α-induced cell death ([5]; lacritin 10 nM pretreatment): attenuated

B2: N-24: deletion mutant comprising a deletion of the 24 amino terminal amino acids of lacritin (protein)
chain: DSTGADPAQEAGTSKPNEEISGPAEPASPPETTTTAQETSAAAVQGTAKVTSSRQELNPLKSIVEKSILLTEQALAKAGKGMHGGVPGGKQFIENGSEFAQKLLKKFSLLKPWA
modifications: homo sapiens
notes: deletion mutant comprising a deletion of the 24 amino terminal amino acids of lacritin
concentration of optimal dephosphorylation [1]: 10 nM
PKCα translocation [2]: shifted PKCα primarily to the perinuclear Golgi region
effect on TNF-α-induced caspase-9 activity [3]: blocked
NFATC1 translocation [4]: translocates into the nucleus
protection from TNF-induced cell death (viability) [5]: protect
